Measured values as given in patent publication US20160040149A1, “Compositions Having Dicamba Decarboxylase Activity and Methods of Use” (priority 2013, published 2016).

B1: 96 (protein)
chain: MAPLIVDVHTHVYPPAYMQMLRSRKTVPYVHDPSNNRDPRLIILSSDDDASIPLDQRGRPVDSSYWDINVKLSFMRQHGINCSVISLANPWLDFVEPAEAQMWAERINDDLEKTCATVNKAADPGNTLTLDQKETLFAFGALPLSAPSSESVVAEIKRLKTLEHLRGVIMGTSGLGKGLDDARLDPVWEALQETDMLMFLHPHYGLPEEAYGGPETTGRYGHVLPLALGFPLETTIAVTRMLLSGVFDRFPRLKILLAHSGGTLPFLAGRIESCILHERKFISGGGDVQGPQRSVWDVLKTNIYLDAVVYGKPGLEAAMTASGSDRLLFGTDHPFFPPLDSKDNSWPSVTTNYQAIHATFDTNSKTVADVLGGNAARILNLK
modifications: Aspergillus nidulans
B2: 97 (protein, listed as Sphingobium sp.)
chain: MAMMIIDCHGHYTVLPKAHDEWREQQKAAFKAGQPAPPYPEISDDEIRETIEANQLRLIKERGADMTIFSPRASAMAPHVGDQSVAVPWAQACNNLIARVVDLFPETFAGVCMLPQSPEADMTSSIAELERCVNELGFIGCNLNPDPGGGHFKHPPLTDRFWYPFYEKMVELDVPAMIHVSGSCNPAMHATGAYYLAADTIAFMQLLQGNLFADFPTLRFIIPHGGGAVPYHWGRFRGLADMLKQPSLDTLLMNNVFFDTCVYHQPGINLLADVIDNKNILFGSEMVGAVRGIDPTTGHYFDDTKRYIDALDISDQERHAIFEGNTRRVFPRLDAKLKARGL
B3: 98 (protein)
chain: MAIIDCHGHYTTAPAAHDAFRKAQIAHHDDPQQPAPQYPHISDDALRESIEQHQLRLLRERGADMTIFSPRASTMAHHIGNEAVSQVWTQRCNDLIARVVQLYPHTFIGVCQLPQSPGVPISHSIAELERCVNELGFVGCNLNPDPSGGHWNGVPLTDRAWYPFFEKMVELDVPAMVHVSGSCNANFHATGAHYLNADTTAFMQFLEGDLFRDFPSLRFIIPHGGGAVPYHWGRFRGLADMLGKPPLATHVMRNVFFDTCVYHQPGIDLLFEVIDIDNILFGSEMVGAVRGIDPQTGHYFDDTKRYIDALTISDADKRKVFEGNARRVYPRLDAQLRARGL
modifications: Xanthomonas campestris pv.
B4: 99 (protein, listed as Ralstonia solanacearum)
chain: MAIIDCHGHFTTAPTALEDWRKRQIANLATPALGPSPDDLKISDDALTEAIRANQLRLMQARGSDLTIFSPRASFMAHHIGDFHTSATWAAICNALCHRVSQLFPDHFVGAAMLPQSPGVDIRTCIPELARCIVDYGFVGVNLNPDPSGGHWTSPPLSDPYWFPLYEKLVEYDVPAMIHVSTSCNACFHTTGAHYLNADTTAFMQVLTSDLFRRFPTLKFVIPHGGGAVPYHWGRFRGLAQELKTPPLQEHLLHNVFFDTCVYHQPGIDLLTRVIPVDNILFASEMIGAVRGIDPETGHPFDDTRRYIDQAHTLSAEDRHKIYEGNARRVYPRLDARLKARGR
B5: 101 (protein, listed as Aquifex aeolicus)
chain: MAQKIALCITGASGVIYGIKLLQVLEELDFSVDLVISRNAKVVLKEEHSLTFEEVLKGLKNVRIHEENDFTSPLASGSRLVHYRGVYVVPCSTNTLSCIANGINKNLIHRVGEVALKERVPLVLLVREAPYNEIHLENMLKITRMGGVVVPASPAFYHKPQSIDDMINFVVGKLLDVLRIEHNLYKRWRG
B6: 102 (protein, listed as Lactobacillus plantarum)
chain: MATKTFKTLDDFLGTHFIYTYDNGWEYEWYAKNDHTVDYRIHGGMVAGRWVTDQKADIVMLTEGIYKISWTEPTGTDVALDFMPNEKKLHGTIFFPKWVEEHPEITVTYQNEHIDLMEQSREKYATYPKLVVPEFANITYMGDAGQNNEDVISEAPYKEMPNDIRNGKYFDQNYHRLNK
B7: 103 (protein)
chain: MAMEIPTEEIKFLKKEDVQNIDLNGMSKKERYEIWRRIPKVELHCHLDLTFSAEFFLKWARKYNLQPNMSDDEILDHYLFTKEGKSLAEFIRKAISVSDLYRDYDFIEDLAKWAVIEKYKEGVVLMEFRYSPTFVSSSYGLDVELIHKAFIKGIKNATELLNNKIHVALICISDTGHAAASIKHSGDFAIKHKHDFVGFDHGGREIDLKDHKDVYHSVRDHGLHLTVHAGEDATLPNLNTLYTAINILNVERIGHGIRVSESDELIELVKKKDILLEVCPISNLLLNNVKSMDTHPIRKLYDAGVKVSVNSDDPGMFLSNINDNYEKLYIHLNFTLEEFMIMNNWAFEKSFVSDDVKSELKALYF
modifications: Plasmodium yoelii yoelii
B8: 104 (protein)
chain: MANILQEPIDFLKKEELKNIDLSQMSKKERYKIWKRIPKCELHCHLDLCFSADFFVSCIRKYNLQPNLSDEEVLDYYLFAKGGKSLGEFVEKAIKVADIFHDYEVIEDLAKHAVFNKYKEGVVLMEFRYSPTFVAFKYNLDIELIHQAIVKGIKEVVELLDHKIHVALMCIGDTGHEAANIKASADFCLKHKADFVGFDHGGHEVDLKEYKEIFDYVRESGVPLSVHAGEDVTLPNLNTLYSAIQVLKVERIGHGIRVAESQELIDMVKEKNILLEVCPISNVLLKNAKSMDTHPIRQLYDAGVKVSVNSDDPGMFLTNINDDYEELYTHLNFTLEDFMKMNEWALEKSFMDSNIKDKIKNLYF
modifications: Plasmodium Vivax
B9: 105 (protein)
chain: MAIDFHVHLDLYPDPVAVARACEERQLTVLSVTTTPAAWRGTLALAAGRPHVWTALGFHPEVVSERAADLPWFDRYLPETRFVGEVGLDGSPSLRGTWTQQFAVFQHILRRCEDHGGRILSIHSRRAESEVLNCLEANPRSGTPILHWYSGSVTELRRAISLGCWFSVGPTMVRTQKGAALIRSMPRDRVLTETDGPFLELDGQAALPWDVKSVVEGLSKIWQIPASEVERIVKENVSRLLGTVR
modifications: Deinococcus radiodurans
B10: 6 (protein)
chain: MAEILSPEESIYYSKLSNDILAEGIKKNPTRFRGFAALPTPDPIQAAMELERCIKLGGFVGAIINGHINGHYLDEIQFDPILEAADALDVPLYIHPAVPPKAIIDTYYKMNDTYAQTVMVSGGWGWHIETGVHVLRLISSGVFDRHPNLKIVIGHLGEGLPFFMHRLNNAIGGNLKKSYSTYLKENIYYTISGFNDPDLFQFVLKKVGENNIMFSSDYPFNFPKREVELFNELNISEEVREKISFKNAERILKI
modifications: Treponema brennaborense
B11: 106 (protein, listed as Pyrococcus horikoshii)
chain: MAGMKFIKNLHVSKLVIDSMKALINGTIYTSFNPLKKVSGLVISHGKVIYAGDSEVAKKIVELSGGEIVDLKGKYVMPAFFDSHLHLDELGMSLEMVDLRGAKSIEELIQRLKRGKGRIIFGFGWDQDELGEWPTRKELNAIDKPVFIYRKCFHVAVANDKMLELLNLTPSKDFDEDTGIIKEKSLEEARKVINERVLTVEDYVYYIKRAQEHLLDLGVKSVSFMSVNEKALRALFYLEREGKLSINVFAYVTPEVLDKLESIGLGRFQGNRLTIAGVKLFTDGSLGARTALLSKPYSDDPSTSGQLVMEREELIRITEKARSLGLDVAIHAIGDKALDVALDVFETTGFPGRIEHASLVRDDQLERVKNLKVRLSVQPHFIISDWWIVERVGEERVKWVYRFKDLMKVAELGFSTDSPIEPADPWLTVDAAVNRGKGKVKLYELTKDQALDIKDALHSYTYGSARVSLASDIGKLEPGFKAEYIILDRDPLVVK
B12: 107 (protein, listed as Rhodopseudomonas palustris)
chain: MAIIDIHGHYTTAPKALEDWRNRQIAGIKDPSVMPKVSELKISDDELQASIIENQLKKMQERGSDLTVFSPRASFMAHHIGDFNVSSTWAAICNELCYRVSQLFPDNFIGAAMLPQSPGVDPKTCIPELEKCVKEYGFVAINLNPDPSGGHWTSPPLTDRIWYPIYEKMVELEIPAMIHVSTSCNTCFHTTGAHYLNADTTAFMQCVAGDLFKDFPELKFVIPHGGGAVPYHWGRFRGLAQEMKKPLLEDHVLNNIFFDTCVYHQPGIDLLNTVIPVDNVLFASEMIGAVRGIDPRTGFYYDDTKRYIEASTILTPEEKQQIYEGNARRVYPRLDAALKAKGK
B13: 584 (protein)
chain: MAQGKVALEEHFAIPETLNDAAGFVPGDYWKELQHRLLDIQDTRLKEMDKHGIGTMILSLAAPAVQGIVDRRQAIEIAKRANDFLAEEVAKRPDRFLAFAALPLQDPDAATSELQRCVADLGFVGAMVNGFSQEGDGQTPLYYDLPQYRPFWKEVEKLDVPFYLHPRNPLPQDARIYDGHPWLLGPTWAFAQETAVHALRLMASGLFDEHPRLNIILGHMGEGLPYMMYRIDHRIAWVKAPPDYPAKRRFMDYFLENFHITTSGNFRTQTLIDAILEIGADRILFSTDWPFENIDHAADWFAATSIAEADRVKIGRTNARRLFKLDVR
modifications: Dicamba decarboxylase variant
B14: 585 (protein)
chain: MAQGKVALEEHFAIPETLQDAAGFVPGDYWKELQHRLMDIQDTRLKEMDKHEIGTMVLSLAAPAVQAIPDRRKAIELAKRANDFLAEEVAKRPDRFLAFAALPMQDPEAATEELQRCVADLGFVGAMVNGFSQEGDGQTPLYYDLPQYRPFWGEVEKLDVPFYLHPRNPLPQDARIYDGHPWLLGPTWAFAQETAVHALRLMASGLFDEHPRLNIILGHMGEGLPYMMYRIDHRIAWVKAPPDYPAKRRFMDYFLENFWITTSGNFRTQTLIDAILEIGADRILFSTDWPFENIDHAADWFAATSIAEADRVKIGRTNARNLFKLDVS
modifications: Dicamba decarboxylase variant
B15: 586 (protein)
chain: MAQGLVALEEHFAIPETLQDAAGFVPGDYWKELQHRLLDIQDTRLKEMDKHEIGTMVLSLAAPAVQAIPDRRKAIELARRANDFLAEEVAKRPDRFLAFAALPLQDVDAATEELQRCVNDLGFVGAMVNGFSQEGDGQTPLYYDLPQYRPFWKEVEKLDVPFYLHPRNPLPQDSRIYDGHPWLLGPTWAFAQETAVHALRLMASGLFDEHPRLNIILGHLGEGLPYMMYRIDHRIAWVHAPPDYPAKRRFMDYFLENFHITTSGNFRTQTLIDAILEIGADRILFSTDWPFENIDHAADWFNATSIAEADRVKIGRTNARRLFKLDVR
modifications: Dicamba decarboxylase variant

Experiments:
[1] = Saturation mutagenesis of SEQ ID NO:109: dicamba decarboxylation activity of point mutants (CO2 released), fold of backbone (Tables 7, 8, Megatable 1); details: decarboxylation activity (CO2 released) of point mutant vs unmutated backbone protein; backbone SEQ ID NO: 109
[2] = DNA shuffling libraries: 14CO2 capturing assay in 384-well format, fold activity of backbone (Megatable 2); details: relative to backbone SEQ ID NO: 509 (DDEC0810)

Molecule	Fold Activity [1] [fold]	Fold Activity [2] [fold]
B1	1.1	–
B2	2.9	–
B3	2.3	–
B4	1.7	–
B5	1.8	–
B6	2.6	–
B7	1.7	–
B8	2.1	–
B9	0.9	–
B10	0.9	–
B11	0.8	–
B12	1.7	–
B13	–	0.9
B14	–	1.8
B15	–	1.2
